Legend:
PCG2-DBD WT [1] = molecular target: T1, PCG2-DBD WT (Magnaporthe oryzae, UniProt G4NA99 1-138); test: crystal structure; two PCG2-DBD monomers per duplex; SPR (Biacore T100, steady state): 20 mM Tris pH 8.0, 150 mM NaCl, 0.005% Tween20; temperature not stated; conditions: protein: recombinant; tags: N-terminal 6xHis (pHAT2); chain copies: 2; blunt
PCG2-DBD 12-128 = PCG2-DBD 12-128 (Magnaporthe oryzae, UniProt G4NA99 12-128); test: SPR; SPR (Biacore T100, steady state): 20 mM Tris pH 8.0, 150 mM NaCl, 0.005% Tween20; temperature not stated; conditions: protein: recombinant; tags: N-terminal 6xHis; label: 5'-biotin on strand S2; blunt
PCG2-DBD WT [2] = molecular target: T1, PCG2-DBD WT; test: as above; conditions: protein: recombinant; tags: N-terminal 6xHis (pHAT2); chain copies: 2; label: 5'-biotin on strand S2; blunt
PCG2-DBD 1-128 = PCG2-DBD 1-128 (Magnaporthe oryzae, UniProt G4NA99 1-128); test: as above; conditions: protein: recombinant; tags: N-terminal 6xHis; label: 5'-biotin on strand S2; blunt
PCG2-DBD 12-138 = PCG2-DBD 12-138 (Magnaporthe oryzae, UniProt G4NA99 12-138); test: as above; conditions: protein: recombinant; tags: N-terminal 6xHis; chain copies: 2; label: 5'-biotin on strand S2; blunt

Binder | binding result (PCG2-DBD WT [1]) | Kd (PCG2-DBD 12-128) | Kd (PCG2-DBD WT [2]) | Kd (PCG2-DBD 1-128) | Kd (PCG2-DBD 12-138)
MCB1 DNA (crystal) (dsDNA) DNA 1: CAATGACGCGTAAG DNA 2: CTTACGCGTCATTG | binds |  |  |  | 
MCB1 DNA (SPR) (dsDNA) DNA 1: CTTACGCGTCATTG DNA 2: CAATGACGCGTAAG |  | 48.3 ± 5.2 µM | 0.81 ± 0.03 µM | 29.8 ± 6.3 µM | 1.37 ± 0.45 µM

Source: PMC4333399
